From patent US20230355720A1, “PHARMACEUTICAL COMPOSITION FOR PREVENTING OR TREATING BONE DISEASES, COMPRISING TRIPLE AGONIST OR CONJUGATE THEREOF HAVING ACTIVITY WITH RESPECT TO ALL OF GLUCAGON, GLP-1 AND GLP RECEPTORS” (HANMI PHARM. CO., LTD., priority 2020, published 2023)
Bridge positions count the residues as written; N and C are the ends. Square brackets hold non-standard residues; d marks the D form. Ends that are not written are not given here. * marks the point of attachment. Acetyl(2-(4-imidazolyl)) = O=C(Cc1c[nH]cn1)*; Aib = CC(C)(N)C(=O)O

T1: human GIP receptor (human, UniProt P48546 22-466)
T1 sequence (looked up): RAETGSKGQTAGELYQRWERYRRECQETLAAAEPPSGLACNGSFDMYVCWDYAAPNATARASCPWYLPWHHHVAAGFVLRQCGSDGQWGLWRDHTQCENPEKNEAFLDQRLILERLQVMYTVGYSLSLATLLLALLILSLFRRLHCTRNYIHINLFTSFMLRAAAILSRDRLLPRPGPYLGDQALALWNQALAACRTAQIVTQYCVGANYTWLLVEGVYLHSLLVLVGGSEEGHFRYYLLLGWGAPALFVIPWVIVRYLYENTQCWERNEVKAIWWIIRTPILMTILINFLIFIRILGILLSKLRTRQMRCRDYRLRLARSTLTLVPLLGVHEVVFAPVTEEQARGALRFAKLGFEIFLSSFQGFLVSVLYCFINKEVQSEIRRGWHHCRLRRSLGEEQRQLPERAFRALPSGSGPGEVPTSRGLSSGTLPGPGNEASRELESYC

B1: triple agonist of SEQ ID NO: 81 (peptide)
peptide: {Acetyl(2-(4-imidazolyl))}-[Aib]QGTFTSDYSKYLDEKRQKEFVQWLLNTC
modifications: bridge 15-19; numbers in words are those of the source; also: ring between positions 16 and 20, type not given here
B2: triple agonist of SEQ ID NO: 82 (peptide)
peptide: {Acetyl(2-(4-imidazolyl))}-[Aib]QGTFTSDYSKYLDEKRQKEFVQWLLDTC
modifications: bridge 15-19; numbers in words are those of the source; also: ring between positions 16 and 20, type not given here

Experiments:
Assay in all cases: cell-based or functional assay
human GLP-1 receptor = human GLP-1 receptor (human, UniProt P43220 24-463)
human GCG receptor = human GCG receptor (human, UniProt P47871 26-477)
human GIP receptor = molecular target: T1, human GIP receptor

human GCG receptor, sequence (P47871 26-477): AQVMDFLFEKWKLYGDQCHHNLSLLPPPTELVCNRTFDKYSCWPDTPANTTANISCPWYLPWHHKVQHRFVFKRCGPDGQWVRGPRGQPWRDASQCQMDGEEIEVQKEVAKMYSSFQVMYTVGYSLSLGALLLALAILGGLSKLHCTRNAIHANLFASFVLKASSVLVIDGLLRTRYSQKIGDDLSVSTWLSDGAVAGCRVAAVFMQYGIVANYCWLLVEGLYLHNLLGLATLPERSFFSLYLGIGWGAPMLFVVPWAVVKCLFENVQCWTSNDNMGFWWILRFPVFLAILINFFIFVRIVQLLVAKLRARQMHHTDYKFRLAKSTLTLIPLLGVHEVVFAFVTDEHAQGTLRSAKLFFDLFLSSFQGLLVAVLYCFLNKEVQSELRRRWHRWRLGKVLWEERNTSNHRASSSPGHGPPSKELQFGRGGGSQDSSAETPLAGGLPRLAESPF

Binder | In vitro activity (%) compared with native peptide, vs GLP-1 (human GLP-1 receptor) [%] | In vitro activity (%) compared with native peptide, vs Glucagon (human GCG receptor) [%] | In vitro activity (%) compared with native peptide, vs GIP (human GIP receptor) [%]
Y[Aib]QGTFTSDYSKCLDEKAAKEFVQWLLDHHPSSGQPPPS (bridge 16-20) [triple agonist of SEQ ID NO: 68] | 27.9 | 8.8 | 107
Y[Aib]QGTFTSDYSKYLDEKAAKEFVQWLLDHHPSSGQPPPSC (bridge 16-20) [triple agonist of SEQ ID NO: 75] | 35.1 | 8.5 | 18
Y[Aib]QGTFTSDYSKCLDEKRAKDFVQWLLDHHPSSGQPPPS (bridge 16-20) [triple agonist of SEQ ID NO: 70] | 15.1 | 71.3 | 64.4
Y[Aib]QGTFTSDYSKYLDERACKDFVQWLLDHHPSSGQPPPS (bridge 16-20) [triple agonist of SEQ ID NO: 71] | 90.1 | 12.7 | 94.7
{Acetyl(2-(4-imidazolyl))}-[Aib]QGTFTSDYSKCLDEKRAKEFVQWLLDHHPSSGQPPPS (bridge 15-19) [triple agonist of SEQ ID NO: 74] | 12.9 | 0.9 | 1
Y[Aib]QGTFTSDYSKCLDERAAKEFVQWLLDHHPSSGQPPPS (bridge 16-20) [triple agonist of SEQ ID NO: 69] | 24.3 | 9.6 | 62.8
H[Aib]QGTFTSDYSKYLDEKRQKEFVQWLLDTKC (bridge 16-20; also: ring between positions 16 and 20, type not given here) [triple agonist of SEQ ID NO: 78] | 51 | 14 | 0.12
H[Aib]QGTFTSDVSKYLDGQAAKEFVAWLLKGC [triple agonist of SEQ ID NO: 7] | 13.7 | < 0.1 | < 0.1
{Acetyl(2-(4-imidazolyl))}-[Aib]QGTFTSDYSKYLDECRAKEFVQWLLDHHPSSGQPPPS (bridge 15-19) [triple agonist of SEQ ID NO: 73] | 22.6 | 5.4 | 3
Y[Aib]QGTFTSDYSKYLDECAAKDFVQWLLDHHPSSGQPPPS (bridge 16-20) [triple agonist of SEQ ID NO: 67] | 28.5 | 46.2 | 39.8
Y[Aib]QGTFTSDYSKYLDECRAKDFVQWLLDHHPSSGQPPPS (bridge 16-20) [triple agonist of SEQ ID NO: 66] | 15.8 | 172 | 17.2
Y[Aib]QGTFTSDCSKYLDERAAKDFVQWLLDHHPSSGQPPPS (bridge 16-20) [triple agonist of SEQ ID NO: 72] | 11.5 | 1 | 1.6
Y[Aib]QGTFTSDYSKYLDEKRAKDFVQWLLDHHPSSGQPPPSC (bridge 16-20; also: ring between positions 16 and 20, type not given here) [triple agonist of SEQ ID NO: 76] | 10.3 | 47.6 | 11.7
B1 | 7.8 | 0.3 | < 0.1
Y[Aib]QGTFTSDYSKYLDECAAKEFVQWLLDHHPSSGQPPPS (bridge 16-20) [triple agonist of SEQ ID NO: 64] | 64.6 | 60.1 | 92.9
B2 | 9.5 | 1.1 | < 0.1
Y[Aib]QGTFTSDYSKYLDEKAAKDFVQWLLDHHPSSGQPPPSC (bridge 16-20; also: ring between positions 16 and 20, type not given here) [triple agonist of SEQ ID NO: 77] | 38.7 | 12.2 | 35.5
H[Aib]QGTFTSDVSKYLDGQAAQEFVAWLLKGC [triple agonist of SEQ ID NO: 8] | 14.2 | 0.1 | < 0.1
[Acetyl(2-(4-imidazolyl))][Aib]EGTFTSDYSIAMDEIHQKDFVNWLLAQC (bridge 16-20; not fully specified) [triple agonist of SEQ ID NO: 83] | 47.3 | 1.3 | 0.4
H[Aib]QGTFTSDYSKCLDEKRAKEFVQWLLDHHPSSGQPPPS (bridge 16-20) [triple agonist of SEQ ID NO: 65] | 95.4 | 25.2 | 11.6
H[Aib]EGTFTSDYSIAMDEIHQKDFVNWLLAQKC (bridge 16-20; not fully specified) [triple agonist of SEQ ID NO: 79] | 41.5 | 4.9 | 1.4
